Test results from patent US20080090755A1.

Legend:
[1] = molecular target: activin; test: cell-based or functional assay
[2] = molecular target: growth/differentiation factor-8 (GDF-8) (UniProt O14793); test: cell-based or functional assay
Chain of UniProt O14793 (O14793 267-375 limits assumed): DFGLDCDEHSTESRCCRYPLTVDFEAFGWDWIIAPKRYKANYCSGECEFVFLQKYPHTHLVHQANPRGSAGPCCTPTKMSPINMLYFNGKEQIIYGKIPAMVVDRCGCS

inhibition of elevation in standardized luciferase activity due to activin ((CAGA)12-MLP-Luc reporter assay, HEK293 cells) [1]: 100%
inhibition of elevation in standardized luciferase activity due to GDF-8 ((CAGA)12-MLP-Luc reporter assay, HEK293 cells) [2]: 100%
Substance: follistatin
